The data set concerns the molecule itself. Kind of data set: SDS-PAGE without reducing agent (oligomerization assay) with Western blot; PLY 0.4 uM in solution without cholesterol or membranes, incubated 1 hr at 37°C with 0, 2.18, 4.36 or 8.73 uM EGCG (control with DMSO only); 5x loading buffer without β-ME, 10 min at 50°C; 6% SDS-PAGE, Western blot; oligomerization reduced by EGCG in a concentration-dependent manner.

B1: Pneumolysin (PLY), wild type, His-tagged (natural protein, Streptococcus pneumoniae D39, UniProt Q04IN8 1-471, looked up)
chain: MANKAVNDFILAMNYDKKKLLTHQGESIENRFIKEGNQLPDEFVVIERKKRSLSTNTSDISVTATNDSRLYPGALLVVDETLLENNPTLLAVDRAPMTYSIDLPGLASSDSFLQVEDPSNSSVRGAVNDLLAKWHQDYGQVNNVPARMQYEKITAHSMEQLKVKFGSDFEKTGNSLDIDFNSVHSGEKQIQIVNFKQIYYTVSVDAVKNPGDVFQDTVTVEDLKQRGISAERPLVYISSVAYGRQVYLKLETTSKSDEVEAAFEALIKGVKVAPQTEWKQILDNTEVKAVILGGDPSSGARVVTGKVDMVEDLIQEGSRFTADHPGLPISYTTSFLRDNVVATFQNSTDYVETKVTAYRNGDLLLDHSGAYVAQYYITWDELSYDHQGKEVLTPKAWDRNGQDLTAHFTTSIPLKGNVRNLSVKIRECTGLAWEWWRTVYEKTDLPLVRKRTISIWGTTLYPQVEDKVEND
notes: no cleavage of the tag is described; also called PLY-WT
As to B1, the binding result is “binds”.
